Laboratory results published in article PMC3620106, “One-Step Chromatographic Purification of Helicobacter pylori Neutrophil-Activating Protein Expressed in Bacillus subtilis” (PLoS ONE, 2013).

Target: the molecule itself
Assay: AUC; sedimentation velocity, HP-NAP at 0.3 mg/ml in D-PBS, pH 7.2, 41,000 rpm, 20°C, SEDFIT c(s); monomer mass by LC-MS

B1: Helicobacter pylori neutrophil-activating protein (HP-NAP), recombinant, expressed in Bacillus subtilis (natural protein)
chain: MKTFEILKHLQADAIVLFMKVHNFHWNVKGTDFFNVHKATEEIYEEFADMFDDLAERIVQLGHHPLVTLSEAIKLTRVKEETKTSFHSKDIFKEILEDYKYLEKEFKELSNTAEKEGDKVTVTYADDQLAKLQKSIWMLQAHLA
notes: monomer 16.934 kDa by LC-MS (theoretical 16.933 kDa); napA was cut from pET28a-His-NAP with NdeI and XhoI and cloned into pRPA; The measured monomer mass (16.934 kDa) fits the theoretical mass of the whole untagged protein (16.933 kDa); also called recombinant HP-NAP; purified HP-NAP; source: B. subtilis DB104 harboring pRPA-NAP; copies: 12
B1 was tested, and the “stoichiometry N” value was 12.
